Assay type in all cases: biochemical, Pyrococcus furiosus
Substrate in data set [1]: CC(C)CC(=O)SCCNC(=O)CCNC(=O)[C@H](O)C(C)(C)COP(=O)(O)OP(=O)(O)OC[C@H]1O[C@@H](n2cnc3c(N)ncnc32)[C@H](O)[C@@H]1OP(=O)(O)O
Description: DTNB assay of released CoASH, 96-well. Particulars: forward reaction, 2 mM ADP, 10 mM K2HPO4, 2 mM MgCl2, pH 7.0, 80°C. The source says: (§1) DTNB assay of released CoASH, 96-well on ACS2-A

Substrate in data set [2]: CC(=O)SCCNC(=O)CCNC(=O)[C@H](O)C(C)(C)COP(=O)(O)OP(=O)(O)OC[C@H]1O[C@@H](n2cnc3c(N)ncnc32)[C@H](O)[C@@H]1OP(=O)(O)O
Description: DTNB assay of released CoASH, 96-well. Particulars: forward reaction, 2 mM ADP, 10 mM K2HPO4, 2 mM MgCl2, pH 7.0, 80°C.
Text: as §1

Substrate in data set [3]: CC(C)(COP(=O)(O)OP(=O)(O)OC[C@H]1O[C@@H](n2cnc3c(N)ncnc32)[C@H](O)[C@@H]1OP(=O)(O)O)[C@@H](O)C(=O)NCCC(=O)NCCSC(=O)Cc1ccccc1
Description: DTNB assay of released CoASH, 96-well. Particulars: forward reaction, 2 mM ADP, 10 mM K2HPO4, 2 mM MgCl2, pH 7.0, 80°C.
Text: as §1

Substrate in data set [4]: CC(=O)SCCNC(=O)CCNC(=O)[C@H](O)C(C)(C)COP(=O)(O)OP(=O)(O)OC[C@H]1O[C@@H](n2cnc3c(N)ncnc32)[C@H](O)[C@@H]1OP(=O)(O)O
The data set can be described thus: DTNB assay of released CoASH, 96-well. Particulars: forward reaction, 2 mM ADP, 10 mM K2HPO4, 2 mM MgCl2, pH 7.0, 80°C. From the text:
DTNB assay of released CoASH, 96-well on ACS4-A
The source holds these as a separate data set.

Substrate in data set [5]: CC(=O)SCCNC(=O)CCNC(=O)[C@H](O)C(C)(C)COP(=O)(O)OP(=O)(O)OC[C@H]1O[C@@H](n2cnc3c(N)ncnc32)[C@H](O)[C@@H]1OP(=O)(O)O
Description: DTNB assay of released CoASH, 96-well. Particulars: forward reaction, 2 mM ADP, 10 mM K2HPO4, 2 mM MgCl2, pH 7.0, 80°C. From the text:
DTNB assay of released CoASH, 96-well on ACS3-A
The source holds these as a separate data set.

Substrate in data set [6]: Nc1ncnc2c1ncn2[C@@H]1O[C@H](COP(=O)(O)OP(=O)(O)OP(=O)(O)O)[C@@H](O)[C@H]1O
Description: colorimetric phosphate release, 96-well. Particulars: reverse reaction (acid + CoA), 20 mM acid substrate, 0.5 mM CoA, 2 mM MgCl2, pH 7.0, 80°C.

Substrate in data set [7]: Nc1nc2c(ncn2[C@@H]2O[C@H](COP(=O)(O)OP(=O)(O)OP(=O)(O)O)[C@@H](O)[C@H]2O)c(=O)[nH]1
The data set can be described thus: colorimetric phosphate release, 96-well. Particulars: reverse reaction (acid + CoA), 20 mM acid substrate, 0.5 mM CoA, 2 mM MgCl2, pH 7.0, 80°C.

Substrate in data set [8]: CC(=O)SCCNC(=O)CCNC(=O)[C@H](O)C(C)(C)COP(=O)(O)OP(=O)(O)OC[C@H]1O[C@@H](n2cnc3c(N)ncnc32)[C@H](O)[C@@H]1OP(=O)(O)O
The data set can be described thus: DTNB assay of released CoASH, 96-well. Particulars: forward reaction, 2 mM ADP, 10 mM K2HPO4, 2 mM MgCl2, pH 7.0, 80°C. From the text:
DTNB assay of released CoASH, 96-well on ACS1-A
The source holds these as a separate data set.

B1: ACS2-A (Pyrococcus furiosus DSM 3638) (protein)
chain 1: MLDYFFNPRGIAVIGASNDPKKLGYEVFKNLKEYQGGKVYPVNVREEEVQGVKAYKSVKEIPGEVDLAIIVVPKKFVKQTLIECGEKGVKGVVIITAGFGETGEEGKREEKELVEIAHKYGMRIIGPNCVGIMNTHANLNATFITVAKKGNVAFISQSGALGAGIVYKTIKEDIGFSKFISVGNMADLDFADLMEYLADTQEDKAIALYIEGIKDGRRFIEVAKKVTKKKPVIALKAGKSESGSRAAASHTGSLAGSWKIYEAAFKQSGVLVANTIDEMLSMARAFTQPLPKGNRVAIMTNAGGPGVLTADEIDKRGLKLANLEEKTIEELRSFLPPMAAVKNPVDMIASARGEDYYRTAKLLLQDPNVDILIAICVVPTFAGMTPTEHAEGIIRAVKEVNNGKPVLALFMAGYVSEKAKELLEKNGIPTYERPEDVAAAAYALVQQAKNVGGGVNG
chain 2: MKGEALKIIEEVLAQGRTAMVEYEAKQVLKAYGLPVPEEKLAKTLDEALKYAEEIGYPVAMKLMSPQILHKSDAKVVMLNIKSPEELKKKWEEIHENARKYRPDAEIFGVLIAPMLKPGREVIIGVTEDPQFGHAIMFGLGGIFVEILKDVTFRIIPITEKDARKMITEIKAYPILAGARGEEPADIEAIVDMLLKVSKLVDDLKDYIKEMDLNPVFVYRKGEGAVVVDARIILKG
notes: alpha (pET24a) and beta-A (pET21b) coexpressed in E. coli BL21(DE3) pRIL, untagged, heat-treated and desalted; alpha2beta2 ~140 kDa; Printed PF1837 primers identical to PF1838 (probable misprint)
On to B1, for which the values for the Michaelis constant (Km) in data set [1], in data set [2] and in data set [3] were 466 ± 119 µM, 350 ± 2 µM and 3.32 ± 1.32 mM, respectively. Also, the kcat/Km (commonly the turnover number divided by the Michaelis constant) in data set [1] came out at 109000 M⁻¹ s⁻¹; in data set [2], 114000 M⁻¹ s⁻¹; in data set [3], 150000 M⁻¹ s⁻¹.

B2: ACS4-A (Pyrococcus furiosus DSM 3638) (protein)
chain 1: MRYFFYPNSVAIFGSFREGAIAREILRNIVEGGFEGKIIPVNPKGGEVEVAGKKFNIKEKLDEPVDVSIIAIPAKLVPELIRGLKGLTKGAVVISAGFSEVGNVELEKELIKAAKEAGIRVIGPNCAGIFGVHAKFYGSFEVRVNPGGLALISQSGAFGGAALAMGNEEGIGFSAFVSYGNAADLDESDFLRFFADDENTRVIGLYIEGVKDGRKFLDALRYAASKKPVIILKAGKSRAGARAAASHTGSLAGSYEIYRAAFRQAGAIEVEEMEELFDAAKAFEMYERAGRRVAIITNSGGPGVLATDKLERLGLEIAKLTEETVEELRSFLPPQCSVKNPVDLIADADYERYKRAIEVVCRDENVDAILVICVPPIFIPSEEIARAVVEANCDKPIIVNFMAGELVREGIKILESKKIKNFPTPERAAKALYWLSLRSSSE
chain 2: MKGEALKIIEEVLAQGRTAMVEYEAKQVLKAYGLPVPEEKLAKTLDEALKYAEEIGYPVAMKLMSPQILHKSDAKVVMLNIKSPEELKKKWEEIHENARKYRPDAEIFGVLIAPMLKPGREVIIGVTEDPQFGHAIMFGLGGIFVEILKDVTFRIIPITEKDARKMITEIKAYPILAGARGEEPADIEAIVDMLLKVSKLVDDLKDYIKEMDLNPVFVYRKGEGAVVVDARIILKG
notes: as for B1
Regarding B2, in data set [4], the Km – broadly, the substrate concentration at which the rate is half of its maximum – amounted to 242 ± 46 µM and the kcat/Km was 119000 M⁻¹ s⁻¹.

B3: ACS3-A (Pyrococcus furiosus DSM 3638) (protein)
chain 1: MTVNLDFLFYPKSVAVIGASATPGKVGNAIMKSLAANFNGKVYPVNVKEGEIEINGKKFKVYRSIKEIPDEVDVAVIAVPAKFVPDVIDECGEKGVKGAIVISAGFKEAGRADLEEELVKRARKWGIRVVGPNCLGVTNLENGFDCNFNPPERQARPKFGPIAFMSQSGAFGAAILDWAARHEVGMSKFISLGNMADLDESDFMLYLKDDPKTKVITAYIEGVKDGRKFFNAAKETTKVKPVIILKAGRTEAGAKAAASHTGSLAGSYKIYQAAFEQTGVLAAKSMRQLFNYAKALAMQSPAKGDRVAIVTNGGGAGVMMSDGLLEAGLKLAEFTEETKEKFRKAIEEGLLPEHMSYKNPVDVIGDAPSSRYETAIRYVLEDPNVDIVVVIALFQSPALDEGIVDVMERVKEYGKPIVFVAPGGEYPERMARKIEEKGIPVFETVEDGVDAVYALIKYGKYLAEL
chain 2: MKGEALKIIEEVLAQGRTAMVEYEAKQVLKAYGLPVPEEKLAKTLDEALKYAEEIGYPVAMKLMSPQILHKSDAKVVMLNIKSPEELKKKWEEIHENARKYRPDAEIFGVLIAPMLKPGREVIIGVTEDPQFGHAIMFGLGGIFVEILKDVTFRIIPITEKDARKMITEIKAYPILAGARGEEPADIEAIVDMLLKVSKLVDDLKDYIKEMDLNPVFVYRKGEGAVVVDARIILKG
notes: as for B1
Take B3: in data set [5], the Michaelis constant (Km) stood at 474 ± 165 µM and the kcat/Km turned out to be 12000 M⁻¹ s⁻¹.

B4: ACS1-A (Pyrococcus furiosus DSM 3638) (protein)
chain 1: MSLEALFNPKSVAVIGASAKPGKIGYAIMKNLIEYGYEGKIYPVNIKGGEIEINGRKFKVYKSVLEIPDEVDMAVIVVPAKFVPQVLEECGQKGVKVVPIISSGFGELGEEGKKVEQQLVETARKYGMRILGPNIFGVVYTPAKLNATFGPTDVLPGPLALISQSGALGIALMGWTILEKIGLSAVVSVGNKADIDDADLLEFFKDDENTRAILIYMEGVKDGRRFMEVAKEVSKKKPIIVIKAGRSERGAKAAASHTGSLAGSDKVYSAAFKQSGVLRAYTIGEAFDWARALSNLPEPQGDNVVIITNGGGIGVMATDAAEEEGLHLYDNLEELKIFANHMPPFGSYKNPVDLTGMADGKSYEGAIRDALAHPEMHSIAVLYCQTAVLDPRELAEIVIREYNESGRKKPLVVAIVGGIEAKEAIDMLNENGIPAYPEPERAIKALSALYKWSKWKAKHKEK
chain 2: MKGEALKIIEEVLAQGRTAMVEYEAKQVLKAYGLPVPEEKLAKTLDEALKYAEEIGYPVAMKLMSPQILHKSDAKVVMLNIKSPEELKKKWEEIHENARKYRPDAEIFGVLIAPMLKPGREVIIGVTEDPQFGHAIMFGLGGIFVEILKDVTFRIIPITEKDARKMITEIKAYPILAGARGEEPADIEAIVDMLLKVSKLVDDLKDYIKEMDLNPVFVYRKGEGAVVVDARIILKG
notes: alpha (pET24a) and beta-A (pET21b) coexpressed in E. coli BL21(DE3) pRIL, untagged (stop codons in primers), heat-treated and desalted; alpha2beta2 ~140 kDa; Printed PF1837 primers are identical to those of PF1838 (probable misprint)
For the protein B4, the results for the Michaelis constant (Km) in data set [6], in data set [7] and in data set [8] were 132 ± 19 µM, 223 ± 58 µM and 137 ± 91 µM, respectively. In addition, the values for the kcat/Km in data set [6], in data set [7] and in data set [8] were 140000 M⁻¹ s⁻¹, 10000 M⁻¹ s⁻¹ and 140000 M⁻¹ s⁻¹, respectively.
